Assay results from the RNAGym collection of RNA variant scans (doi:10.1073/pnas.2313332121).
Variants at the floor of the assay were thinned out.

B1: TPR 5TU (parent)
chain: GGAUCUUCUCGAUCUAACAAAAAAGACAAAUCUGCCACAAAGCUUGAGAGCAUCUUCGGAUGCAGAGGCGGCAGCCUUCGGUGGCGCGAUAGCGCCAACGUUCUCAACUAUGACACGCAAAACGCGUGCUCCGUUGAAUGGAGUUUAUCAUG

Variants of: B1
Experiment: polymerase ribozyme fitness, log enrichment relative to wild type (log ratio); higher = more active; in vitro selection for triplet polymerase activity
Method in brief: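 Fitness measures genotype enrichment against wild-type enrichment on a logarithmic scale, with inverse-variance-weighted averaging of replicates. The logarithm is base 2, and genotypes were kept only with ≥10 input reads and ≥1 read per output in Illumina sequencing. The sequenced libraries came from one triplicate in vitro selection round, including frozen incubation at −7 °C, of PCR-built, transcribed mutant libraries of each subunit of a heterodimeric triplet polymerase ribozyme.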

Variant | polymerase ribozyme fitness (log ratio)
A22C G86U C131A | ≤ -4.2
A22U C36G C105G | ≤ -4.2
A22U A26C A47C C57A G62A G86A A89U A106U C108G | ≤ -4.2
A21U C96U C108U C132A | ≤ -4.2
A22C C27U C54U C85G A91U G112A A119U A147C A150C | ≤ -4.2
A23C C79A C103U A138G G143C | ≤ -4.2
A22C G86C | -2.83
A21G U144A | 0.357
A22U C96U C118U | -0.15
A21U C38A C57U U102G A119U | ≤ -4.2
A21G C116G U144G | 1.13
A21U C85A A97U | -2.01
A21U | 0.554
A21G | 0.531
A21U G92A | -2.72
A22U C32U U55G U56C C75A G88U C105U A142U | ≤ -4.2
A22U C85U | -0.371
A21U C43U C99G A120G G126U | ≤ -4.2
A22C C76A G128U C129U | ≤ -4.2
A22U G46U C69A C93A C131A U148A | ≤ -4.2
A21C U61G C85U | 0.133
A23G C38U U61A C69A C76U C96G C116U G117U | ≤ -4.2
A22U C36U U78C U146C | -3.63
A21U A73G C129G | -3.49

Variant | polymerase ribozyme fitness (log ratio)
A22G A28U A29G A37C G48A A64C C85G C99U C125A A137G | ≤ -4.2
A21U G84U | -1.29
A21G A91G A115U C116A | -3.91
A22C C85A A137G | -2.49
A21G C57A G74A C76G C87U G124U | ≤ -4.2
A21U G34A C93U C99G C149G | ≤ -4.2
A22U A29G C35G U44G C57U C114A | ≤ -4.2
A21U C96A G136A | 0.203
A21G C27G C114U U135G U146A U148G | ≤ -4.2
A21U A23U A24C C54U G81A C85U A147C | ≤ -4.2
A21U A28C U31G A47G C85U C116G C129A G133A | ≤ -4.2
A22G A24U G59C C96G A98U | 0.453
A22C A26G A30U U45G G74C C103G G140U | ≤ -4.2
A21U A23C C38A C99G A142C | ≤ -4.2
A21U A24C A26U U44G A89U A91G G128U G140C U145A | ≤ -4.2
A21G C54A G83U C87A C96U A122C | ≤ -4.2
A22C C125U | -0.469
A22G A23U U53G C57A G84U C114U C129U | ≤ -4.2
A22U G84U | -1.67
A21U A47C A52C A60G C85G C87A A121C | ≤ -4.2
A22C A40U C54U G94A | -0.982
A21U A29C C95A U101G G126C U135G G143U | ≤ -4.2
A21U A23U A24C C54U G81A C85U | ≤ -4.2
A22C G48U A60G | 0.164

Variant | polymerase ribozyme fitness (log ratio)
A23C A26U U53A C85A G136U | ≤ -4.2
A21U C32A G58C | ≤ -4.2
A23C U44G A47U A91U A122U | ≤ -4.2
A22U C43U A47C A91C C108U A115U A121C | ≤ -4.2
A21U A30U C38G C85G G112A G124A | ≤ -4.2
A22U C38U C51U U53A C54A C85G | ≤ -4.2
A22C G34U U82A C93A | ≤ -4.2
A21C U61A A89U U90G G100U G136A A138C U144G | ≤ -4.2
A21C U56G C85A C87U G92A | -3.51
A21U A47G C54U G81C G92A C95A C99U | -3.94
A23C G84U A106U G117U C118U C123U A142G | ≤ -4.2
A21G A23G G128C | ≤ -4.2
A21U U61A G88A | ≤ -4.2
A21U A23U C54U G58A G92U | ≤ -4.2
A21G G50U G92U A147C | -0.875
A23G A26C G141A C149G | ≤ -4.2
A21C U56A | -0.39
A21G A24U U53A G94A | -0.529
A21C U53G C87A C95A C149G | ≤ -4.2
A21U C95U C99U | -0.768
A22G C35U C93G A142C A150G | ≤ -4.2
A21G C116G | 1.2
A21G G83C U90C U146A A150C | ≤ -4.2
A22U C99G C116U | -0.689

Variant | polymerase ribozyme fitness (log ratio)
A21U A29C A30C A39G U44A A49C U53A G68A C105U | ≤ -4.2
A21G A52U C85G A119G C125U A137U | ≤ -4.2
A23G G86U C93U A150U | -3.88
A23C A40C G83U U102A U145A | ≤ -4.2
A22U A29C A47G U134C U139A | ≤ -4.2
A22U C27G C57G U61A C95U U104G U145G | ≤ -4.2
A22U C35A U55A U56G G74A C85G | ≤ -4.2
A22U G140A | -2.83
A21U C75A A122U | -3.97
A22U G83C G84A U101A C123A | -4.08
A22U C96U | 0.237
A21G A29G G83C A98U | ≤ -4.2
A21U G62A | 0.138
A22U C35U U55A G59A G65A C85U C105A | ≤ -4.2
A22C U101G | 0.0923
A22U A52C G58C G84U C99A | ≤ -4.2
A22U C63U | 0.542
A22U C54A | -0.932
A23G G50C | -4
A22C A29U A41G G50C U77A C85U C93G G141C | ≤ -4.2
A22U G50C | -2.99
A22U G50U | 1.37
A22U A40C G65A | -3.81
A22G C57U G70A A91C | ≤ -4.2

Variant | polymerase ribozyme fitness (log ratio)
A23G C87U U127C | -3.81
A21G C51U U53A C96U G126U | -2.46
A21U G84A A89G | -1.44
A23G A52U | -3.51
A21G G84C A113U | -4.09
A22G G117A | 1.13
A22U G50U C96G | 0.467
A22U A73G U82A | 1.72
A21G G70A | -3.35
A22C A52G G71A C79G C87G C99G C114G U127G C129A A142C | ≤ -4.2
A21U C36A G50U U55A C57G G62A G68U C85G C103A G128A | ≤ -4.2
A23C U144C | -4.15
A21U U31A C85A | -0.251
A21U G50C C54U C63U G94A | -0.0103
A21G A26C A66U C87G A115C U134C U146A | ≤ -4.2
A22U G92C C93U A119G | -3.96
A22U G86A G92U | -1.74
A22G G65A A97U | -2.68
A23G A47C | -2.96
A22C G84A C99A G152U | ≤ -4.2
A22U U53A G88A C116G A142G A150C | ≤ -4.2
A21G G25C G34A A49G C72U G92C G112U | ≤ -4.2
A22U C125U | -0.442
A21U C35U C129U | -0.6

Variant | polymerase ribozyme fitness (log ratio)
A22U C38A G59A C85U C95A | -0.962
A21U C51U A106U | -2.08
A22C C57A C118U | -1.03
A22U G141C | 1.14
A23C A29G G81A G84U A122G G126A U135A | ≤ -4.2
A21U G50C G84U | -4.11
A22C A24U G50C G58A C93U G94U | ≤ -4.2
A21U A29C G92A C99U G117U U130G | -3.76
A22G A24G G92U | ≤ -4.2
A21C U90A G94C | ≤ -4.2
A22U C99U U101G A115U U151G | ≤ -4.2
A23G A52U C118A A122U | ≤ -4.2
A22C G46A G59C A91C C99G U101G C116G A138C | ≤ -4.2
A23G A29G C95G G152U | -3.84
A21G G88A U90C U127C U135G C149U | ≤ -4.2
A22G G58A C75A G86U C99A C103U G141C | ≤ -4.2
A22C A26U U31C A37C U56C A73C A91C | ≤ -4.2
A21U G80A | -0.249
A21U C75G | -4.03
A21G C132G | -3.9
A22U C96U A121U U139A | -4.03
A23G C51G U53A A60G G84A U104G C116U A121C | ≤ -4.2
A21G G141A | 1.12
A21U U82G C93G | -3.69

Variant | polymerase ribozyme fitness (log ratio)
A22U U56A | -0.239
A22C A24C U61G G88U | ≤ -4.2
A22G U53C C54U U78C G117A | -1.92
A22U U56A A106U A107C A142G | ≤ -4.2
A22C A52U U82C G86U A97G | -3.83
A21G A49G C63G C96U A98U C125G | -0.663
A21U A142U | -0.552
A21U A52G A66C G128A | ≤ -4.2
A22C C32U C85G C95A G100A G112C | ≤ -4.2
A22G C51U G83A | 0.818
A21U A23G A26G G84U G86U G136U U148G | ≤ -4.2
A22U A41C G70C U82G | ≤ -4.2
A21U C75G G86A U101C | -4.03
A22C A23G C93G C149U | ≤ -4.2
A22C G92C C114U A150C | ≤ -4.2
A23C G48C G68C C99U U101C A122U U144G | ≤ -4.2
A23C U45C A52C U55A C75G C76U C93A A119G G143U | -4.17
A21U U55A C93G A97U A115U | ≤ -4.2
A21U G58C A73G C85G | -1.7
A22U A39C U61A C72U C85G G141A | ≤ -4.2
A22C C27G A37C A73G U146A G152U | ≤ -4.2
A22C G92C U109C U148A | -4.16
A22U A24C A40U U55A C85A G117C G136U A138C | ≤ -4.2
